T1: S5-Pore peptide (Homo sapiens (Human).)
T1 construct: peptide of the extracellular S5-P loop of the human hERG1 (Kv 11.1) potassium channel; also called antigenic peptide; raising peptide
T1 chain: EQPHMDSRIGWLHN


Key:
[1] = target: T2, hERG1 potassium channel expressed on hERG1-transfected HEK 293 cells (Homo sapiens (Human)., UniProt Q12809); experiment: immunostaining of cells or tissue; indirect immunofluorescence on fixed HEK-hERG1 and HEK-Mock cells; settings: one partner purified
T2 construct: human ether-a-go-go-related gene-1 (hERG1, Kv 11.1) potassium channel; cell culture details are in the Supplementary Materials; also called HEK-hERG1; HEK 293 hERG1; source: HEK 293, transfected, on cells
T2 sequence (Q12809 whole entry): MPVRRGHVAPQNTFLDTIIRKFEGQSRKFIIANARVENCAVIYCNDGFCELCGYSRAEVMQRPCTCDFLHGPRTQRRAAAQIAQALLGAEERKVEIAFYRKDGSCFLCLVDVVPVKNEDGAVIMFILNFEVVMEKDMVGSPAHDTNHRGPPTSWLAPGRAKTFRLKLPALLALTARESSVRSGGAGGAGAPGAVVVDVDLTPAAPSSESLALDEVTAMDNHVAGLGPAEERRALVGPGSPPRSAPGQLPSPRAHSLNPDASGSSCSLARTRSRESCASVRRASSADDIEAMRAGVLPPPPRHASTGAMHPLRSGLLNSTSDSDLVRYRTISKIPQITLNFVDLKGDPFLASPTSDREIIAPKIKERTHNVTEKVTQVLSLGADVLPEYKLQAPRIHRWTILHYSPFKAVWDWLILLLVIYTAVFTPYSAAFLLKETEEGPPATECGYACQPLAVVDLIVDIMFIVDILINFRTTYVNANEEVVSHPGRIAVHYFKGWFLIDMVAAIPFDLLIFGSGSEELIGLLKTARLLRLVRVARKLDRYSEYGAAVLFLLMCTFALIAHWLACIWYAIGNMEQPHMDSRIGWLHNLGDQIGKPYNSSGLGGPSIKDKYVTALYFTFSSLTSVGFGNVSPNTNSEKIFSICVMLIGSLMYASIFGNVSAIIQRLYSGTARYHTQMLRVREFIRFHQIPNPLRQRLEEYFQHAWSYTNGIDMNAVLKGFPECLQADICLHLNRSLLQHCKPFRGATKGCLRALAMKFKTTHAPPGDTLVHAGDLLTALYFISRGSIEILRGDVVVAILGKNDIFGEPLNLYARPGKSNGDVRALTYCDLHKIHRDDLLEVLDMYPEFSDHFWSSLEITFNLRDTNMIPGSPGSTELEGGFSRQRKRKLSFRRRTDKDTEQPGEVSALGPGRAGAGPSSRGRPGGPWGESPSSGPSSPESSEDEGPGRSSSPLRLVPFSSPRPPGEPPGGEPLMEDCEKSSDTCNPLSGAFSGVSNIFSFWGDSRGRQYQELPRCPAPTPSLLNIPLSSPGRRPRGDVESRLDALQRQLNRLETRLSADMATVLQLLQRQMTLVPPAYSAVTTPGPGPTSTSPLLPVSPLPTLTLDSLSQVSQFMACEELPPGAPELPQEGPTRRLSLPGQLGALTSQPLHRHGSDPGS

[2] = target: T1, S5-Pore peptide; experiment: ELISA; S5-Pore peptide as coating antigen; 0.1 to 10 ug of scFv (Alexa488 conjugate at 1 ug); revealed with anti-6xHis antibody then anti-mouse IgG-HRP; OD450; settings: both partners purified
[3] = target: T1, S5-Pore peptide; experiment: SPR; Biacore T100; S5-Pore peptide amine-coupled to a CM5 chip; scFv flowed at 2.5, 5, 10, 20, 40 ug/ml; contact 120 s, dissociation 600 s, 30 ul/min; 1:1 binding model for scFv-hERG1, two-state reaction model for scFv-hERG1-Cys; settings: both partners purified
[4] = target: T2, hERG1 potassium channel expressed on …; experiment: immunostaining of cells or tissue; direct immunofluorescence with the Alexa 488 conjugate on fixed cells (HEK-hERG1, HEK-Mock; PANC-1 in 2D and as spheroids); settings: one partner purified
[5] = target: T3, hERG1 potassium channel endogenously expressed on cancer cell lines (Homo sapiens (Human)., UniProt Q12809); experiment: as above; settings: one partner purified
T3 construct: human ether-a-go-go-related gene-1 (hERG1, Kv 11.1) potassium channel; also called hERG1 on PANC-1 cells; Kv 11.1; source: endogenous, on PANC-1 cells (2D and spheroids); in the viability tests also MDA-MB231, MIAPaCa-2, HCT-116
T3 sequence (Q12809 whole entry): as above

| Binder | binding result [1] | fold binding against scFv-hERG1 (ELISA O.D.) [2] | Kd [3] | binding result [4] | binding result [5] |
| --- | --- | --- | --- | --- | --- |
| scFv-hERG1-Cys (scFv, V domains shown, numbers count on: Kabat scheme of the VH; as the linker of m1; as the VL of m1; also called mutagenized scFv-hERG1; scFv-Cys; source: P. pastoris GS115 (pPIC9K), purified from culture supernatant (HisTrap HP)) VH: EVQLQQSGPELVKPGASVKISCKTSGYTFTEYTVHWVKQSHGKSLEWIGGINPNGGTTYNQKFKGKATLTIDKSSSSAFMELRSLTSEDSAVYYCATGWGPDYWGQGTTLTVSS VL: not shown | binds | ~2 fold | 61.8 nM |  |  |
| scFv-hERG1-Cys-Alexa488 (scFv, V domains shown, numbers count on: Kabat scheme of the VH; as the linker of m1; as the VL of m1; Same protein as m2, with the fluorophore) VH: EVQLQQSGPELVKPGASVKISCKTSGYTFTEYTVHWVKQSHGKSLEWIGGINPNGGTTYNQKFKGKATLTIDKSSSSAFMELRSLTSEDSAVYYCATGWGPDYWGQGTTLTVSS VL: not shown |  |  |  | binds | binds |
